# Source: patent publication US8647868B2, “Compositions and methods for increasing production of recombinant gamma-carboxylated proteins” (Wake Forest University Health Sciences, priority 2005, dated 2014)
# What was measured:
# blood clotting activity = test: Blood clotting activity (APTT) of purified r-hFIX; assay type: biochemical, human; conditions: purified from medium of 200 nM siRNA SMART pool treated (r-hFIX+VKORC1) BHK cells
# Description: Warfarin sensitive VKOR activity was measured as described (19) by estimating the percent conversion of vitamin K1 2,3-epoxide (Vit.K>O) to vitamin K1. The vitamin and the epoxide were separated on a reversed phase C18 column in 100% methanol and quantified against external standards. VKOR activity was either triggered with 5 mM DTT or 0.32 mM reduced RNAse. Reduced bovine RNAse was prepared according to a modified method originally described by Rupp et al. (20). One hundred mg RNAse was dissolved in 500 μl of 0.2 M Tris-Acetate, 6 M guanidinium hydrochloride, pH 8.0. Seventy-two mg DTT was added and the solution was left at 37° C. for one hour. Then the pH was adjusted to 4.0 with acetic acid and DTT, Tris and guanidinium hydrochloride removed by gel filtration on a column of Sephadex G-25 equilibrated in 0.1 M acetic acid. Prior to chromatography, the column resin and the 0.1 M acetic acid were saturated with N2. The void volume fraction containing reduced RNAse was distributed into sealed 0.75 ml serum flasks filled with N2 which were stored at 4° C. until use. […] Blood clotting activities of purified r-hFIX and plasma hFIX were determined with the Activated Partial Thromboplastin Time (APPT) kit APTT-SP (liquid)-0020006300 from Instrumentation Laboratory, Lexington, Mass. […]
# γ-carboxylase = test: FLEEL γ-carboxylation in extracted rat liver microsomes triggered by reduced RNAse; assay type: biochemical; conditions: 40 μM vitamin K1 2,3-epoxide, no DTT
# Description: Rat liver microsomes extracted of luminal and peripherally bound membrane proteins (see Experimental Procedures) were tested for FLEEL γ-carboxylation when the reaction was triggered by reduced RNAse (black bar) and reduced vitamin K1H2 (shaded bar). When reduced RNAse was used, the test system contained 40 μM vitamin K1 2,3-epoxide as the source of the γ-carboxylase cofactor. No DTT was present in the assays. Each bar represents the average activity of three parallel incubations. Standard deviation is shown on each bar.
# For removal of microsomal luminal and peripherally bound membrane proteins, microsomes obtained from 4 g of rat liver were suspended in 8 ml of 100 mM Na2CO3, 1.2 M KCl, 0.025% deoxycholate, pH 11.5 with a Potter Elvehjelm glass homogenizer and centrifuged at 100,000×g for 45 min (14). […]
# Warfarin sensitive VKOR activity was measured as described (19) by estimating the percent conversion of vitamin K1 2,3-epoxide (Vit.K>O) to vitamin K1. The vitamin and the epoxide were separated on a reversed phase C18 column in 100% methanol and quantified against external standards. […] Blood clotting activities of purified r-hFIX and plasma hFIX were determined with the Activated Partial Thromboplastin Time (APPT) kit APTT-SP (liquid)-0020006300 from Instrumentation Laboratory, Lexington, Mass. […]
Molecule,specific activity of functional r-hFIX (blood clotting activity),FLEEL γ-carboxylation triggered by reduced RNAse (γ-carboxylase)
r-hFIX: functional recombinant human factor IX purified from medium of engineered BHK cells,147 units/mg,
"reduced RNAse: bovine ribonuclease B reduced with DTT; used to trigger VKOR activity (protein, UniProt P61823 27-150, looked up, reduced with DTT) Ribonuclease pancreatic: KETAAAKFERQHMDSSTSAASSSNYCNQMMKSRNLTKDRCKPVNTFVHESLADVQAVCSQKNVACKNGQTNCYQSYSTMSITDCRETGSSKYPNCAYKTTQANKHIIVACEGNPYVPVHFDASV",,to the same extent as chemically reduced vitamin K1H2
